According to article PMC5133854:

Key:
[1] = target: purified porcine gastric mucin (pPGM) (porcine); assay: AFM single-molecule force spectroscopy; Gal-3 covalently attached to the AFM tip, pPGM covalently attached to the glass slide; PBS pH 7.4; force-volume mode
Q9RGN5 = assay: AFM single-molecule force spectroscopy; MUB covalently attached to both the AFM tip and the glass slide; PBS pH 7.4; force-volume mode; repeated after adding free MUB (0.05 mg/mL) or anti-Mub antibody (0.05 mg/mL); details: other: AFM single-molecule force spectroscopy
[2] = target: mucus-binding protein (MUB) from Lactobacillus reuteri ATCC 53608 (Lactobacillus reuteri ATCC 53608) (UniProt Q9RGN5); assay: as above
[3] = target: purified porcine gastric mucin (pPGM) (porcine); assay: AFM single-molecule force spectroscopy; MUB covalently attached to the AFM tip, pPGM covalently attached to the glass slide; PBS pH 7.4; force-volume mode, 2 um/s, 1024 force-distance curves; repeated on the same region after adding free sugars or anti-Mub antibody (0.05 mg/mL)

## Galectin-3 (Gal-3) (from UniProt P17931 1-250) (natural protein)
[1]
  binding energy: 0.79 aJ
  energy (integration of the adhesive peaks): 3.08 aJ

## mucus-binding protein (MUB) from Lactobacillus reuteri ATCC 53608
Q9RGN5
  percent of force curves with unfolding events: the numbers of unfolding events in the force volume maps were 71% of the 1024 force curves

## mucus-binding protein (MUB) from Lactobacillus reuteri ATCC 53608 (from UniProt Q9RGN5 1-3269) (natural protein)
[2]
  modal value of the rupture adhesion force: 209 pN
[3]
  modal value of the rupture adhesion force: 380 pN
  modal value of the rupture adhesion force (PBS, before the antibody): 482 pN
